“And” between values parts separate entries of the source, which are not always exact repeats. Equal values may be shown once. Read-outs that look alike come from different tables or passages of the source. Values belong to the molecule of their own block, whether it stands above or below them.
What was measured:
[1] = molecular target: T1, Melanocarpus albomyces laccase (MaL) (Melanocarpus albomyces, UniProt Q70KY3); assay: Kinetic parameters of MaL; format: biochemical
T1 sequence (Q70KY3 51-609): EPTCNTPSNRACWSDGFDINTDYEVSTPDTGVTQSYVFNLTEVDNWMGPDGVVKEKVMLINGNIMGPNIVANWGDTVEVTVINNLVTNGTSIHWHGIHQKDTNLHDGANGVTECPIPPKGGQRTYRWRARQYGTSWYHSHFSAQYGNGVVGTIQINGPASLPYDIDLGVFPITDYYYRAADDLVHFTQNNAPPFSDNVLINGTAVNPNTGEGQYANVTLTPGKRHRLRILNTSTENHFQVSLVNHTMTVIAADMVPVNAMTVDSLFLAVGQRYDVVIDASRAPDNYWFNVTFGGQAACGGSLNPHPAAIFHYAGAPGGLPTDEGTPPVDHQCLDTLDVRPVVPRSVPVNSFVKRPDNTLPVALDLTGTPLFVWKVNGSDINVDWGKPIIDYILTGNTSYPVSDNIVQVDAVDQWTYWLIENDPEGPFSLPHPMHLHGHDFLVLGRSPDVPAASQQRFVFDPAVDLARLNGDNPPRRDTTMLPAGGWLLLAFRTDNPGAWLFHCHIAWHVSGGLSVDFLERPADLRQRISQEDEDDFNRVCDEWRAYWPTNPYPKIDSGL
Method: (§1) On syringaldazin and DMP 40 mM MES buffer, pH 6 was used. All activity assays were carried out at 25° C. Kinetic parameters were estimated by a nonlinear regression curve fit. The values were compared to those of Melanocarpus albomyces MaL, laccase.

[2] = test system: Thielavia arenaria ALKO4197 laccase TaLcc3, recombinant, SEQ ID NO: 43; assay: Kinetic parameters of TaLcc3; format: biochemical
Method: as §1

[3] = test system: Thielavia arenaria ALKO4197 laccase TaLcc4, recombinant, SEQ ID NO: 45; assay: Kinetic parameters of TaLcc4; format: biochemical
Method: as §1

[4] = molecular target: T2, Thielavia arenaria ALKO4197 laccase TaLcc1, recombinant, SEQ ID NO: 39 (Canariomyces arenarius, UniProt F6N9E7); format: biochemical
T2 construct: plasmid pALK1342 (DSM 15484)
Method: as §1

[5] = test system: wild type Chaetomium (CtL) laccase; format: biochemical, Chaetomium thermophilum; conditions: pH 5
[6] = Denim bleaching at different temperatures; set-up: key to After laccase treatment L* / After laccase treatment b* / Increase of L*: CIE L*a*b* colour coordinates (illuminant D65), reflectance; conditions: face side of denim; 30 min, 40° C., pH 6; enzyme 200 nkat/g, mediator 10 mg/g
Method: (§2) Lee Cooper jeans (MASI Company Oy, Finland) that were desized and treated with neutral ECOSTONE® cellulase were used as test material. Laccase treatments were performed in LP-2 Launder Ometer as follows. About 10 g of denim swatches (15×14 cm) were loaded into 1.2 liter containers containing 200 ml Mc Ilvaine's citrate phosphate buffer pH 5, 6 or 7 and the containers were temperated. Enzyme with or without the mediator (methyl syringate, DeniLite II Assist, Novozymes) was added as laccase activity units. Enzyme was dosed 200 nkat/g and the mediator 10 mg/g on the weight of fabric. […] The Launder Ometer was run at 50° C. for 30 min and after that the temperature in Launder was raised to 80° C. for 10 min. The swatches were carefully rinsed with warm water, dried half-dry in a tumbler and after that air dried.
(§3) The bleaching effect was evaluated by measuring the colour as reflectance values with the Minolta Chromameter CM 1000 (Minolta Co.) using L*a*b* color space coordinates (illuminant D65). The colour from both sides of the swatches was measured before and after the laccase treatment. Each measurement was the average of several measurements.
The test system and denim were as in Example 7, except that the conditions during the laccase and mediator treatment in Launder were 30 min, pH 6 and temperature 30-70° C. (DeniLite II Base also at 80° C.) and the enzyme was inactivated by alkaline treatment instead of raising the temperature in Launder as follows. After removing swatches from the containers they were soaked in warm water containing NaOH (pH 11.5) for 10 min and rinsed carefully with warm water. The swatches were dried half-dry in a tumbler and after that air dried. The bleaching effect was evaluated by measuring the colour as reflectance values as in Example 7.

[7] = Specific activity towards syringaldazine; format: biochemical; conditions: 25 mM MES buffer, pH 5.5
Method: (§4) Specific activities of the purified T. arenaria and C. thermophilum laccases were determined towards different laccase substrates.

[8] = Stain removal, tea soiling; set-up: key to Tea L* / Tea a* / Tea b*: CIE L*a*b* color coordinates from reflectance; conditions: 60 min, pH 6
Method: (§5) Laccases CtLcc1, TaLcc2, TaLcc4 and Denilite II Base (Example 7) were tested for their ability to remove stains. The following artificially soiled test cloths were used: grass soiling (Art.164, EMPA Testmaterialen, Germany), tea soiling (Art. 167, EMPA Testmaterialen, Germany). The fabric was cut in 5.8×5.8 cm swatches. Laccase treatments were performed in LP-2 Launder Ometer as follows. About 5 g of soiled fabrics were loaded into 1.2 liter containers containing 150 ml Mc Ilvaine's citrate phosphate buffer pH 6 and the containers were temperated. Enzyme with or without the mediator (methyl syringate, DeniLite II Assist, Novozymes) was added as laccase activity units (Example 7). Enzyme was dosed 200 nkat/g and the mediator 10 mg/g on the weight of fabric, except at 40° C. dosages of 20 nkat/g and 2 mg/g were also used. The Launder Ometer was run at 40, 50 or 60° C. and pH 6 for 60 min. After that the swatches were carefully rinsed under running water and in shake flasks containing warm water and dried in the air.
(§6) The stain removal effect was evaluated by measuring the colour as reflectance values using L*a*b* color space coordinates (Example 7). The colour of the swatches was measured before and after the laccase treatment.

[9] = Specific activity towards di-methoxy-phenol (DMP); format: biochemical; conditions: 25 mM MES buffer, pH 5.5
Method: as §4

[10] = Stain removal, grass soiling; set-up: key to Grass L* / Grass a* / Grass b*: CIE L*a*b* color coordinates from reflectance; conditions: for Grass L* / Grass a* / Grass b*: 60 min, pH 6
Method: as §5, §6

[11] = Denim bleaching at different pH values; set-up: key to After laccase treatment L* / After laccase treatment b* / Increase of L*: CIE L*a*b* colour coordinates (illuminant D65), Minolta reflectance; conditions: face side of denim, 30 min, 50° C.
Method: as §2, §3

[12] = Specific activity towards guaiacol; format: biochemical; conditions: 25 mM MES buffer, pH 5.5
Method: as §4

[13] = Specific activity towards ABTS; format: biochemical; conditions: 25 mM succinate buffer pH 4.5, 25° C.
Method: The activity assay was carried out in accordance with the method developed by Niku-Paavola et al. (1988). The sample was diluted with 0.025 M succinate buffer, pH 4.5. […] The activity is expressed as nano katals.
as §4

[14] = Isoelectric focusing (pI); format: physicochemical; conditions: pH range 3-9
Method: Molecular weight of the T. arenaria and C. thermophilum laccases were determined on SDS-PAGE according to Laemmli (1970) The gels used in the SDS-PAGE analysis were ready-made 12% Tris HCl gels (BioRad). Protein bands were visualized by staining with Coomassie Brilliant Blue (R 350; Pharmacia) and compared with molecular weight markers (Prestained Protein Marker Broad Range #7708S; New England BioLabs, Beverly, Mass.). The molecular weight of the both laccases was approximately 80 kDa. The isoelectric point of the laccases was determined with isoelectric focusing within the pH range of 3-9 (Pharmalyte IEF, Pharmacia) on a LKB 2117 Multiphor II Electrophoresis System (LKB Pharmacia, Bromma, Sweden) according to the manufacturer's instructions.
The purified recombinant Thielavia and Chaetomium laccases were characterized in terms of pH optimum, thermal stability, and pI as described in Example 2. The molecular weight was determined by MALDI-TOF mass spectrometry on a Ultraflex™ time-of-flight instrument (BrukerDaltonics, Germany) as previously described (Palonen et al., 2003). The redox-potentials of the T1 coppers of for CtLcc, and TaLcc2 laccases were determined by photometric copper titration in 0.1 M KH2PO4 (pH 6.0) as described by Xu et al. (1996) using the redox titrant couple K3Fe(CN)6/K4Fe(CN)6. The redox potential of TaLcc1 was determined with a combined Pt—AgCl/KCl microelectrode at pH 5.0 according to Sigoillot et al (2004). The characterization results are collected to Table 14.

[15] = 25 mM succinate buffer pH 4.5, 25° C.
[16] = 40° C., enzyme 20 nkat/g + mediator 2 mg/g (Mediator only: 0 nkat/g)
[17] = 40° C., enzyme 200 nkat/g + mediator 10 mg/g (Mediator only: 0 nkat/g)
[18] = 40° C., enzyme 200 nkat/g, mediator 0 mg/g
[19] = 50° C., enzyme 200 nkat/g + mediator 10 mg/g (Mediator only: 0 nkat/g)
[20] = pH 5, enzyme 200 nkat/g without the mediator, or mediator 10 mg/g alone
[21] = pH 5, enzyme 200 nkat/g, mediator 10 mg/g
[22] = pH 6, enzyme 200 nkat/g without the mediator, or mediator 10 mg/g alone
[23] = pH 6, enzyme 200 nkat/g, mediator 10 mg/g
[24] = pH 7, enzyme 200 nkat/g without the mediator, or mediator 10 mg/g alone
[25] = pH 7, enzyme 200 nkat/g, mediator 10 mg/g

T2 sequence (F6N9E7 entry or part of it): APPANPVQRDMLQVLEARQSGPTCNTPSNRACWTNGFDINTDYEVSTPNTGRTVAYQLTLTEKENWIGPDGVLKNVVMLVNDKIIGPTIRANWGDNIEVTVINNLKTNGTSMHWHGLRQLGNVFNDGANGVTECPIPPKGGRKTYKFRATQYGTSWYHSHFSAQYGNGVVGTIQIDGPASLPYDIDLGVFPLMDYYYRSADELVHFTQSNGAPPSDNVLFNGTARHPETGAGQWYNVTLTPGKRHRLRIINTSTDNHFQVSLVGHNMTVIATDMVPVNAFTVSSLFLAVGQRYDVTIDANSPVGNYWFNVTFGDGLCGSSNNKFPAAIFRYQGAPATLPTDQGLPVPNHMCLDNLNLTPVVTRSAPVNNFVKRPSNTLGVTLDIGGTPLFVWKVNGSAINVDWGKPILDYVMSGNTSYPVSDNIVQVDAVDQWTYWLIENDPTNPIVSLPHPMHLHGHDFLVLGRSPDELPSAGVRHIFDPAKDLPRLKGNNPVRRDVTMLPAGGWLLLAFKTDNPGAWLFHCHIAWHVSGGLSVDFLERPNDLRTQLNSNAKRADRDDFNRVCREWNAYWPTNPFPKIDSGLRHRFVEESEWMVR

Molecule: CCn1c(=NN=c2sc3cc(S(=O)(=O)O)ccc3n2CC)sc2cc(S(=O)(=O)O)ccc21 [ABTS, 2,2′azinobis-3-ethylbenzthiazole-6-sulphonate]
- kcat ([1]; pH 4.5): 78.17 s⁻¹
- Km [2, 15]: 1040 µM
- kcat [2, 15]: 0.617 s⁻¹
- Km [3, 15]: 2470 µM
- kcat [3, 15]: 143.5 s⁻¹
- Km ([4]; pH 4.5): 75 µM
- kcat ([4]; pH 4.5): 68.83 s⁻¹

Molecule: COc1cc(C=NN=Cc2cc(OC)c(O)c(OC)c2)cc(OC)c1O [Syringaldazin, syringaldazin]
- kcat ([1]; 40 mM MES buffer, pH 6, 25° C.): 78.5 s⁻¹
- Km ([2]; 40 mM MES buffer, pH 6, 25° C.): 4.3 µM
- kcat ([2]; 40 mM MES buffer, pH 6, 25° C.): 0.2 s⁻¹
- Km ([3]; 40 mM MES buffer, pH 6, 25° C.): 115 µM
- kcat ([3]; 40 mM MES buffer, pH 6, 25° C.): 15.5 s⁻¹
- Km ([4]; 40 mM MES buffer, pH 6, 25° C.): 4.3 µM
- kcat ([4]; 40 mM MES buffer, pH 6, 25° C.): 32.33 s⁻¹

Molecule: [F-].[Na+] [NaF]
- Inhibition (%) CtL [5]: 40% and 70%

- After laccase treatment L* [6]: 29.23
- After laccase treatment b* [6]: −18.44
- After laccase treatment L* [11, 20]: 29.40
- After laccase treatment b* [11, 20]: −18.70
- After laccase treatment L* [11, 21]: 29.17
- After laccase treatment b* [11, 21]: −18.47
- After laccase treatment L* [11, 22]: 27.68
- After laccase treatment b* [11, 22]: −18.76
- After laccase treatment L* [11, 23]: 29.55
- After laccase treatment b* [11, 23]: −18.11
- After laccase treatment L* [11, 24]: 29.29
- After laccase treatment b* [11, 24]: −18.89
- After laccase treatment L* [11, 25]: 28.31
- After laccase treatment b* [11, 25]: −18.33
B1: TaLcc4: Thielavia arenaria ALKO 4197 laccase, SEQ ID NO: 45, produced in Trichoderma reesei (protein)
chain: MISRLLFTSSFTATLASALPGLLYAPHSSALLARSSCSGNTASTRSQWCDYSIDTDYTTEPVDTGVTREYWLELTDVTVSPDGVSRSAMAVNGSIPGPTIFADWGDTVVVHVTNSLSTSLNGTSIHWHGIRQNYTNQNDGVASITQCPLAVGESTTYTWKATQYGSSWYHSHFSLQAWEGVFGGIIINGPSTANYDEDLGMLFLNDWDHQTVDELYSSAETSGPPTLANGLINGTNVYGEDGDSSQTGTRLAVSFTSGTSYRMRLVNAAVDTHWKFSIGNHTMTVMAADLVPIEPYETTVLTIGMGQRYDIVVTADQADVADNFWMRAIPQSACSDNDSADNIRGIVYYGDSPGTPSTTGYDFEDACDDETANITPYISKTVSSAEWNDLETASVSRNSAGLFKWYLNSTTMLVDWAKPTLEMVTDNVTEYDSDDAIIELNEANQWVYMVVQTTLQVPHPIHLHGHDFFILAQGSGTYDSSTVTLKTDNPPRRDTAMLPSQGYLVMAWETDNPGVWLMHCHIGWHTSEGFALQFIERKSEIASIVSTSTMKDICTKWEEFQEEYSIEQEDSGV
modifications: Thielavia arenaria ALKO4197; (1)..(573) Deduced amino acid sequence of Thielavia arenaria ALKO4197 TaLcc4
- Increase of L* [6]: 0.12
- Specific activity on syringaldazin [7]: 52 nkat/mg
- Tea L* [8, 16]: 75.09
- Tea a* [8, 16]: 5.73
- Tea b* [8, 16]: 22.08
- Tea L* [8, 17]: 74.56
- Tea a* [8, 17]: 5.58
- Tea b* [8, 17]: 23.55
- Tea L* [8, 18]: 76.74
- Tea a* [8, 18]: 5.05
- Tea b* [8, 18]: 21.67
- Tea L* [8, 19]: 75.13
- Tea a* [8, 19]: 5.19
- Tea b* [8, 19]: 22.44
- Specific activity on DMP [9]: 110 nkat/mg
- greenness reduced (grass) ([10]; 50° C.): ca. 2 units
- Grass L* [10, 16]: 78.53
- Grass a* [10, 16]: −6.07
- Grass b* [10, 16]: 19.33
- Grass L* [10, 17]: 78.94
- Grass a* [10, 17]: −3.77
- Grass b* [10, 17]: 16.77
- Grass L* [10, 18]: 79.84
- Grass a* [10, 18]: −4.98
- Grass b* [10, 18]: 17.62
- Grass L* [10, 19]: 78.62
- Grass a* [10, 19]: −4.00
- Grass b* [10, 19]: 17.16
- Increase of L* [11, 20]: −0.04
- Increase of L* [11, 21]: 1.01
- Increase of L* [11, 22]: 0.24
- Increase of L* [11, 23]: 1.35
- Increase of L* [11, 24]: 0.50
- Increase of L* [11, 25]: 0.47
- Specific activity on guaiacol [12]: 5 nkat/mg
- Specific activity on ABTS [13]: 1000 nkat/mg
- pI [14]: 3.0
